This note sets out measurements from the nanobody polyreactivity screen of Harvey et al. (2022).

The series in a line: yeast display, Sf9 membrane polyspecificity reagent, FACS + sequencing; frameworks hold sequencing errors. The procedure, abridged:
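Synthetic nanobody libraries on Saccharomyces cerevisiae BJ5465 were galactose-induced for 36–48 hours, stained 1 hour at 4 °C with 10% biotinylated, detergent-solubilized Sf9 membrane reagent and enriched on streptavidin microbeads. FACS then separated cells into low and high (top ~1%) gates by anti-HA (expression) and streptavidin (reagent binding) fluorescence. Genes were colony-PCR amplified, MiSeq 2 × 250 sequenced and CDR-length filtered. A clone's polyreactivity label is that of its gate of origin.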
In the case of “QVQLVESGGGLVQAGGSLRLSCAASGIIFERNAMGWYRQAPGKERELVAAITTSGDSTYYADSVKGRFTISRDNAKNTVYLQMNSLKPEDTAVYYCAVEGVIWSFWPYEYWGQGTQVTVSS”, the “polyreactivity (PSR sort gate)” value was “high polyreactivity”.
Regarding “QVQLVESGGGLVQAGGSLRLSCAASGIIFEYYAMGWYRQAPGKERELVASITSSDGSTYYADSVKGRFTISRDNAKNTVYLQMNSLKPEDTAVYYCAAAGDYVVPISSTAGFGGDYWGQGTQVTVSS”, the “polyreactivity (PSR sort gate)” value was “low polyreactivity”.
For “QVQLVESGGGLVQAGGSLRLSCAASGIIFFDYAMGWYRQAPGKERELVAAISSGGGNTYYADSVKGRFTISRDNAKNTVYLQMNSLNPEDTAVDYCAAEPYIYGEQGAYDYWGQGTQVTVSS” the value was “low polyreactivity”; for “QVQLVESGGGLVQAGGSLRLSCAASGIIFFPYAMGWYRQAPGKEREFVAAITSRGGSTYYADSVKGRFTISRDNAKNTVYLQMNSLKPEDTAVYYCAADHLGRARGPWRYNYWGQGTQVTVSS”, “low polyreactivity”; for “QVQLVESGGGLVQAGGSLRLSCAASGIIFFPYPMGWYRQAPGKERELVASINISDSSTYYADSVKGRFTISRDTAKNTVDLQMNSLKPEDTAVYYCAADNRGDSWYWHGYWGQGTQVSVSS”, “low polyreactivity”.
Take “QVQLVESGGGLVQAGGSLRLSCAASGIIFFWNAMGWYRQAPGKERELVAAISSGGSTFADSVKGRFTISRDNAKNTVYLQMNSLKPEDTAVYYCAARFYHGYRPYIAIYGYGYWGQGTQVTVSS”: the “polyreactivity (PSR sort gate)” value is recorded as “low polyreactivity”.
For the sequence “QVQLVESGGGLVQAGGSLRLSCAASGIIFGAYAMGLYRQAPGQERVFVAAISRSGSRTYYADSVKGRFTISRDTAKNTVYLQMNSLKPEDTAVYYCAAESPVLYYWGQGTQVTVSS”, the “polyreactivity (PSR sort gate)” value was “high polyreactivity”.
For the sequence “QVQLVESGGGLVQAGGSLRLSCAASGIIFGGNVMGWYRQAPGKERELVAAITWSGGTTYYADSVKGRFTISRDNAKNTVFLQMNSLKPEDTAVYYCAADRVYLDYVAGTYDYWGQGTQVTVSS”, the “polyreactivity (PSR sort gate)” value is “low polyreactivity”.
“QVQLVESGGGLVQAGGSLRLSCAASGIIFGGYAMGWYGQAPGKERELVASITWGGGSTYYADSVKGRFTISRDNAKNTVYLQMNSLKPEDTAVYYCNKRGYPGSDWGQGTQVTVSS”: the “polyreactivity (PSR sort gate)” value is on record as “low polyreactivity”.
Next, “QVQLVESGGGLVQAGGSLRLSCAASGIIFGGYAMGWYRQAPGKERELVAAITRSGGSTYYADSVKGRFTISRDNAKNTVYLQMNSLKPEDTAVYYCAAVPYRKHSYPFRLNYWGQGTQVTVSS”: “high polyreactivity”; “QVQLVESGGGLVQAGGSLRLSCAASGIIFGGYDMGWYRQATGKERELVAAISWSGGSTYYADSVKGRFTISRDTAKNTVYLQMNSLKPEDTAVYYCAAAYYAPTRDYYYWGQGTQVTVSS”: “low polyreactivity”.
For “QVQLVESGGGLVQAGGSLRLSCAASGIIFGPNAMGWYRQAPGKERELVAGIDWSTDSTYYADSVKGRFTLSRDNAKNTVYLQMNSLKPEDTAVYYCAVAENKRFGSVGYYYWGQGTQVTVSS”, the “polyreactivity (PSR sort gate)” value is listed as “low polyreactivity”.
Next, “QVQLVESGGGLVQAGGSLRLSCAASGIIFGQNALGWYRQAPGKEREVVAAITISGGSTYYSDSVKGRFTISRDNAKNTVYLQMNSLKPEDTAVYYCAAEWYYVYIAPYDYWGQGTQVTVSS”: “low polyreactivity”; “QVQLVESGGGLVQAGGSLRLSCAASGIIFGRYAMGWYRQATGTVRELVAASTRSGGRTYYADTVKGRFTISRDYAKNTVFVQMNSLKPEDTAVYYCSADASGHSYDYWGQGTQVTVSS”: “high polyreactivity”; “QVQLVESGGGLVQAGGSLRLSCAASGIIFGRYAMGWYRQSPGKERELVAAISSRGGSTYYADSVKGRFTISRDNAKNTVYLQMNSLKPEDTAVYYCAATWGYLRGSTNYYYWGQGTQVTVSS”: “high polyreactivity”.
For “QVQLVESGGGLVQAGGSLRLSCAASGIIFGSNAMGWYRQAPGKERELVAAISYSGASTYYADSVKGRFTISRDNAKNTVYLQMNSLKPEDTAVYYCATYSRWDYGYWGQGTQVTVSS” the value was “high polyreactivity”.
